# Reference: patent US20150232576
# Molecular target: T1, endothelial nitric oxide synthase (eNOS), purified, unphosphorylated (UniProt P29473)
# T1 sequence: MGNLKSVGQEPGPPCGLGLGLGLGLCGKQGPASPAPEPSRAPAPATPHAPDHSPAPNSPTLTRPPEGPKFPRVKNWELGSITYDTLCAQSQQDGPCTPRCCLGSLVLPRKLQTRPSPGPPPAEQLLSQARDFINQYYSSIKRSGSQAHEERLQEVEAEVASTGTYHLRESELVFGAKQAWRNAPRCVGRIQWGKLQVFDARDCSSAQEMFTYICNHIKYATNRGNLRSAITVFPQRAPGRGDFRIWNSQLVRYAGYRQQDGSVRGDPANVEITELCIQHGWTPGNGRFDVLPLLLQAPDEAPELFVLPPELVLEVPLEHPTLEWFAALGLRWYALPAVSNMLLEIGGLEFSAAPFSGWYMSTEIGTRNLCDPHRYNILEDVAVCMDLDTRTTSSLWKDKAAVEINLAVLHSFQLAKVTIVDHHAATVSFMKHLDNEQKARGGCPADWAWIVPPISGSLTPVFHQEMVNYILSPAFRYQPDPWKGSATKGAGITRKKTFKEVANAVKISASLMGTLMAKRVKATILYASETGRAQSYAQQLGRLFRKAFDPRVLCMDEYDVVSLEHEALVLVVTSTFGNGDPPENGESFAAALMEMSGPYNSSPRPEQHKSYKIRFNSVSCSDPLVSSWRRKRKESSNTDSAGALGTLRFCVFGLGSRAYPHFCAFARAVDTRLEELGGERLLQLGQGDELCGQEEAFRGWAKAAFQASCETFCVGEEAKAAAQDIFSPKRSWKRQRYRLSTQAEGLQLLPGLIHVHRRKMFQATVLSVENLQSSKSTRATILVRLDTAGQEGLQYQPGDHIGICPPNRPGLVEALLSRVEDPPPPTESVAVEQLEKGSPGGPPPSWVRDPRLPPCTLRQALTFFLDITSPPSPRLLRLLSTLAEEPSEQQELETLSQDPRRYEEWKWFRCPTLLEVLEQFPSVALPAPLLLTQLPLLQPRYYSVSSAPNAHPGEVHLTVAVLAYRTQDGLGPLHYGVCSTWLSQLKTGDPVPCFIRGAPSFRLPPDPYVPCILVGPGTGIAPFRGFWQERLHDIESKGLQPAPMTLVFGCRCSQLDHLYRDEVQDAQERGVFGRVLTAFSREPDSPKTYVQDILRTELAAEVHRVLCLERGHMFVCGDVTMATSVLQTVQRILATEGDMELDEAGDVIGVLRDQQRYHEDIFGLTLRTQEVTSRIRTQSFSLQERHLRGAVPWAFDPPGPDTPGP
substance,measurement,value
Phosphorylated His-p38 (p38 MAP kinase),NO production (hemoglobin capture assay),Weak inhibition of NO formation by 1 µM p38 in the presence of 0.6 µM CaM was observed; NO production was reduced by an average of 30%
